Results from patent US20170306033A1 (Amgen, published 2017).

T1: human PAC1 receptor (human, UniProt P41586 21-468)
T1 sequence: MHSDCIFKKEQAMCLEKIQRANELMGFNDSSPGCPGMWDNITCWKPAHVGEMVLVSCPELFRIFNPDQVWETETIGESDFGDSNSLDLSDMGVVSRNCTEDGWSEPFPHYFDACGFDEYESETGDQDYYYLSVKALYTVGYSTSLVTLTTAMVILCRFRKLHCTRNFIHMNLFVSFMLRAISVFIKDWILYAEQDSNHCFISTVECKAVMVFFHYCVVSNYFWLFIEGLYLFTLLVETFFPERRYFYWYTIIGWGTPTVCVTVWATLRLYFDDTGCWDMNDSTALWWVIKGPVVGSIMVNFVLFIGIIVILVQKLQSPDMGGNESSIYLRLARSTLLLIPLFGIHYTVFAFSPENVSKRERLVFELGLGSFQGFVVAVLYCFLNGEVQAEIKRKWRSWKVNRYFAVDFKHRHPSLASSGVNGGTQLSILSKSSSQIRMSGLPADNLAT


What was measured:
human CGRP receptor = human CGRP receptor (human, UniProt Q16602 23-461; O60894 27-148); assay: cell-based or functional assay
human PAC1 receptor = biological target: T1, human PAC1 receptor; assay: cell-based or functional assay

human CGRP receptor, sequence (Q16602 23-461 limits assumed, chain 1 of 2): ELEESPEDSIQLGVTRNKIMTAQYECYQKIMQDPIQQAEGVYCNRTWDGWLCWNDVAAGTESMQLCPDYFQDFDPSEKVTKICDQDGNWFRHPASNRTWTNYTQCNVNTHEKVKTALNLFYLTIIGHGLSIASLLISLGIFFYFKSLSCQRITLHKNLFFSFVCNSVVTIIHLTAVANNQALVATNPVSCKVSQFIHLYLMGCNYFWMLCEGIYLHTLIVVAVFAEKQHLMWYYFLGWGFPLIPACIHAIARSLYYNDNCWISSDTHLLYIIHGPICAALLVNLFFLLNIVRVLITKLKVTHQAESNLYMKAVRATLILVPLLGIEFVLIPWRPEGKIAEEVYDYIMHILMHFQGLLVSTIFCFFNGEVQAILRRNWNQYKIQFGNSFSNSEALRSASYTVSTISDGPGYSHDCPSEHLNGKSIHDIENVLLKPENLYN
human CGRP receptor, sequence (O60894 27-148 limits assumed, chain 2 of 2): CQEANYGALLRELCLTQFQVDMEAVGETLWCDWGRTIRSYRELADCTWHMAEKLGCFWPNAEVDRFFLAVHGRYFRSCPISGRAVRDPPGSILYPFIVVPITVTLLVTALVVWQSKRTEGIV

Binder | % inhibition of human CGRPR (human CGRP receptor) | % inhibition of human PAC1 (human PAC1 receptor)
iPS:328034 (bispecific antibody, human IgG1, kappa, N297G) light 1: not shown heavy 1: not shown light 2: EIVLTQSPGTLSLSPGERATLSCRASQSVSSGYLTWYQQKPGQAPRLLIYGASSRATGIPDRFSGSGSGTDFTLTISRLEPEDFAVYYCQQYGNSLSRFGKGTKLEIKRTVAAPSVFIFPPSDEQLKSGTASVVCLLNNFYPREAKVQWKVDNALQSGNSQESVTEQDSKDSTYSLKSTLTLSKADYEKHKVYACEVTHQGLSSPVTKSFNRGEC heavy 2: not shown | 86% | 9%
iPS:328036 (bispecific antibody, human IgG1, kappa, N297G) light 1: not shown heavy 1: not shown light 2: EIVLTQSPGTLSLSPGERATLSCRASQSVSSGYLTWYQQKPGQAPRLLIYGASSRATGIPDRFSGSGSGTDFTLTISRLEPEDFAVYYCQQYGNSLSRFGQGTKLEIKRTVAAPSVFIFPPSDEQLKSGTASVVCLLNNFYPREAKVQWKVDNALQSGNSQESVTEQDSKDSTYSLKSTLTLSKADYEKHKVYACEVTHQGLSSPVTKSFNRGEC heavy 2: not shown | 79% | 21%
iPS:328042 (bispecific antibody, human IgG1, kappa, lambda, N297G) light 1: DIQMTQSPSSLSASVGDRITITCRASQSISRYLNWYQQKPGKAPKLLIYAASSLQSGIPSRFSGSGSGTDFTLTINSLQPEDFATYFCQQSYSPPFTFGQGTKVDIKRTVAAPSVFIFPPSDEQLKSGTASVVCLLNNFYPREAKVQWKVDNALQSGNSQESVTEQDSKDSTYSLESTLTLSKADYEKHKVYACEVTHQGLSSPVTKSFNRGEC heavy 1: not shown light 2: not shown heavy 2: not shown | 85% | 20%
iPS:328037 (bispecific antibody, human IgG1, kappa, lambda, N297G) light 1: DIQMTQSPSSLSASVGDRITITCRASQSISRYLNWYQQKPGKAPKLLIYAASSLQSGIPSRFSGSGSGTDFTLTINSLQPEDFATYFCQQSYSPPFTFGQGTKVDIKRTVAAPSVFIFPPSDEQLKSGTASVVCLLNNFYPREAKVQWKVDNALQSGNSQESVTEQDSKDSTYSLESTLTLSKADYEKHKVYACEVTHQGLSSPVTKSFNRGEC heavy 1: not shown light 2: not shown heavy 2: not shown | 71% | 25%
iPS:328040 (bispecific antibody, human IgG1, kappa, lambda, N297G) light 1: DIQMTQSPSSLSASVGDRITITCRASQSISRYLNWYQQKPGKAPKLLIYAASSLQSGIPSRFSGSGSGTDFTLTINSLQPEDFATYFCQQSYSPPFTFGQGTKVDIKRTVAAPSVFIFPPSDEQLKSGTASVVCLLNNFYPREAKVQWKVDNALQSGNSQESVTEQDSKDSTYSLESTLTLSKADYEKHKVYACEVTHQGLSSPVTKSFNRGEC heavy 1: not shown light 2: not shown heavy 2: not shown | 74% | 70%

The next lines start with the values.

% inhibition of human CGRPR (human CGRP receptor) | % inhibition of human PAC1 (human PAC1 receptor) | Binder
94% | 15% | iPS:327890 (bispecific antibody, human IgG1, kappa, lambda, N297G) light 1: not shown heavy 1: not shown light 2: QSVLTQPPSVSAAPGQKVTISCSGSSSNIGNNYVSWYQQLPGTAPKLLIYDNNKRPSGIPDRFSGSKSGTSATLAITGLQTGDEADYYCGTWDSRLSAVVFGKGTKLTVLGQPKANPTVTLFPPSSEELQANKATLVCLISDFYPGAVTVAWKADGSPVKAGVETTKPSKQSNNKYAAKSYLSLTPEQWKSHRSYSCQVTHEGSTVEKTVAPTECS heavy 2: QVQLVESGGGVVQPGRSLRLSCAASGFTFSSFGMHWVRQAPGKELEWVAVISFDGSIKYSVDSVKGRFTISRDNSKNTLFLQMNSLRAEDTAVYYCARDRLNYYDSSGYYHYKYYGMAVWGQGTTVTVSSASTKGPSVFPLAPSSKSTSGGTAALGCLVKDYFPEPVTVSWNSGALTSGVHTFPAVLQSSGLYSLESVVTVPSSSLGTQTYICNVNHKPSNTKVDKKVEPKSCDKTHTCPPCPAPELLGGPSVFLFPPKPKDTLMISRTPEVTCVVVDVSHEDPEVKFNWYVDGVEVHNAKTKPCEEQYGSTYRCVSVLTVLHQDWLNGKEYKCKVSNKALPAPIEKTISKAKGQPREPQVYTLPPSRKEMTKNQVSLTCLVKGFYPSDIAVEWESNGQPENNYKTTPPVLKSDGSFFLYSKLTVDKSRWQQGNVFSCSVMHEALHNHYTQKSLSLSPGK
74% | 85% | iPS:326669 (bispecific antibody, human IgG2, kappa) light 1: EIVLTQSPATLSLSPGERATLSCRASQSVGRSLHWYQQKPGQAPRLLIKYASQSLSGIPARFSGSGSGTDFTLTISSLEPEDFAVYYCHQSSRLPFTFGPGTKVDIKRTVAAPSVFIFPPSDEQLKSGTASVVCLLNNFYPREAKVQWKVDNALQSGNSQESVTEQDSKDSTYSLESTLTLSKADYEKHKVYACEVTHQGLSSPVTKSFNRGEC heavy 1: QVQLVESGGGVVQPGRSLRLSCAASGFTFSRFAMHWVRQAPGKGLEWVAVISYDGGNKYYAESVKGRFTISRDNSKNTLYLQMNSLRAEDTALFYCARGYDVLTGYPDYWGQGTLVTVSSASTKGPSVFPLAPCSRSTSESTAALGCLVKDYFPEPVTVSWNSGALTSGVHTFPAVLQSSGLYSLKSVVTVPSSNFGTQTYTCNVDHKPSNTKVDKTVERKCCVECPPCPAPPVAGPSVFLFPPKPKDTLMISRTPEVTCVVVDVSHEDPEVQFNWYVDGVEVHNAKTKPREEQFNSTFRVVSVLTVVHQDWLNGKEYKCKVSNKGLPAPIEKTISKTKGQPREPQVYTLPPSREEMTKNQVSLTCLVDGFYPSDIAVEWESNGQPENNYDTTPPMLDSDGSFFLYSDLTVDKSRWQQGNVFSCSVMHEALHNHYTQKSLSLSPGK light 2: EIVLTQSPGTLSLSPGERATLSCRASQSVSSGYLTWYQQKPGQAPRLLIYGASSRATGIPDRFSGSGSGTDFTLTISRLEPEDFAVYYCQQYGNSLSRFGQGTKLEIKRTVAAPSVFIFPPSDEQLKSGTASVVCLLNNFYPREAKVQWKVDNALQSGNSQESVTEQDSKDSTYSLKSTLTLSKADYEKHKVYACEVTHQGLSSPVTKSFNRGEC heavy 2: QVQLVESGGGVVQPGRSLRLSCAASGFTFSSYGMHWVRQAPGKGLEWVAVIWYDGSNKYYADSVKGRFIISRDKSKNTLYLQMNSLRAEDTAVYYCARAGGIAAAGLYYYYGMDVWGQGTTVTVSSASTKGPSVFPLAPCSRSTSESTAALGCLVKDYFPEPVTVSWNSGALTSGVHTFPAVLQSSGLYSLESVVTVPSSNFGTQTYTCNVDHKPSNTKVDKTVERKCCVECPPCPAPPVAGPSVFLFPPKPKDTLMISRTPEVTCVVVDVSHEDPEVQFNWYVDGVEVHNAKTKPREEQFNSTFRVVSVLTVVHQDWLNGKEYKCKVSNKGLPAPIEKTISKTKGQPREPQVYTLPPSRKKMTKNQVSLTCLVKGFYPSDIAVEWESNGQPENNYKTTPPMLKSDGSFFLYSKLTVDKSRWQQGNVFSCSVMHEALHNHYTQKSLSLSPGK
73% | 10% | iPS:328035 (bispecific antibody, human IgG1, kappa, N297G) light 1: DIQMTQSPSSLSASVGDRITITCRASQSISRYLNWYQQKPGKAPKLLIYAASSLQSGIPSRFSGSGSGTDFTLTINSLQPEDFATYFCQQSYSPPFTFGQGTKVDIKRTVAAPSVFIFPPSDEQLKSGTASVVCLLNNFYPREAKVQWKVDNALQSGNSQESVTEQDSKDSTYSLESTLTLSKADYEKHKVYACEVTHQGLSSPVTKSFNRGEC heavy 1: not shown light 2: EIVLTQSPGTLSLSPGERATLSCRASQSVSSGYLTWYQQKPGQAPRLLIYGASSRATGIPDRFSGSGSGTDFTLTISRLEPEDFAVYYCQQYGNSLSRFGQGTKLEIKRTVAAPSVFIFPPSDEQLKSGTASVVCLLNNFYPREAKVQWKVDNALQSGNSQESVTEQDSKDSTYSLKSTLTLSKADYEKHKVYACEVTHQGLSSPVTKSFNRGEC heavy 2: not shown
67% | 29% | iPS:328045 (bispecific antibody, human IgG1, kappa, lambda, N297G) light 1: DIQMTQSPSSLSASVGDRITITCRASQSISRYLNWYQQKPGKAPKLLIYAASSLQSGIPSRFSGSGSGTDFTLTINSLQPEDFATYFCQQSYSPPFTFGQGTKVDIKRTVAAPSVFIFPPSDEQLKSGTASVVCLLNNFYPREAKVQWKVDNALQSGNSQESVTEQDSKDSTYSLESTLTLSKADYEKHKVYACEVTHQGLSSPVTKSFNRGEC heavy 1: not shown light 2: not shown heavy 2: not shown
77% | 5% | iPS:328044 (bispecific antibody, human IgG1, kappa, lambda, N297G) light 1: not shown heavy 1: not shown light 2: not shown heavy 2: EVQLVESGGGLVKPGGSLRLSCAASGFTFSNAWMSWVRQAPGKELEWVGRIKSKTDGGTTDYTAPVKGRFTISRDDSKNTLYLQMNSLKAEDTAVYYCTTDRTGYSISWSSYYYYYGMDVWGQGTTVTVSSASTKGPSVFPLAPSSKSTSGGTAALGCLVKDYFPEPVTVSWNSGALTSGVHTFPAVLQSSGLYSLESVVTVPSSSLGTQTYICNVNHKPSNTKVDKKVEPKSCDKTHTCPPCPAPELLGGPSVFLFPPKPKDTLMISRTPEVTCVVVDVSHEDPEVKFNWYVDGVEVHNAKTKPCEEQYGSTYRCVSVLTVLHQDWLNGKEYKCKVSNKALPAPIEKTISKAKGQPREPQVYTLPPSRKEMTKNQVSLTCLVKGFYPSDIAVEWESNGQPENNYKTTPPVLKSDGSFFLYSKLTVDKSRWQQGNVFSCSVMHEALHNHYTQKSLSLSPGK
74% | 9% | iPS:328039 (bispecific antibody, human IgG1, kappa, lambda, N297G) light 1: not shown heavy 1: not shown light 2: not shown heavy 2: EVQLVESGGGLVKPGGSLRLSCAASGFTFGNAWMSWVRQAPGKELEWVGRIKSKTDGGTTDYAAPVKGRFTISRDDSKNTLYLQMNSLKTEDTAVYFCTTDRTGYSISWSSYYYYYGMDVWGQGTTVTVSSASTKGPSVFPLAPSSKSTSGGTAALGCLVKDYFPEPVTVSWNSGALTSGVHTFPAVLQSSGLYSLESVVTVPSSSLGTQTYICNVNHKPSNTKVDKKVEPKSCDKTHTCPPCPAPELLGGPSVFLFPPKPKDTLMISRTPEVTCVVVDVSHEDPEVKFNWYVDGVEVHNAKTKPCEEQYGSTYRCVSVLTVLHQDWLNGKEYKCKVSNKALPAPIEKTISKAKGQPREPQVYTLPPSRKEMTKNQVSLTCLVKGFYPSDIAVEWESNGQPENNYKTTPPVLKSDGSFFLYSKLTVDKSRWQQGNVFSCSVMHEALHNHYTQKSLSLSPGK
